T1: full-length hCDCP1 with N-terminal c-Myc tag (expression vector GS01), on Ba/F3-hCDCP1 cells or … (human, UniProt Q9H5V8 30-836)
T1 construct: also called human CDCP1; hCDCP1 forced expression cells
T1 sequence: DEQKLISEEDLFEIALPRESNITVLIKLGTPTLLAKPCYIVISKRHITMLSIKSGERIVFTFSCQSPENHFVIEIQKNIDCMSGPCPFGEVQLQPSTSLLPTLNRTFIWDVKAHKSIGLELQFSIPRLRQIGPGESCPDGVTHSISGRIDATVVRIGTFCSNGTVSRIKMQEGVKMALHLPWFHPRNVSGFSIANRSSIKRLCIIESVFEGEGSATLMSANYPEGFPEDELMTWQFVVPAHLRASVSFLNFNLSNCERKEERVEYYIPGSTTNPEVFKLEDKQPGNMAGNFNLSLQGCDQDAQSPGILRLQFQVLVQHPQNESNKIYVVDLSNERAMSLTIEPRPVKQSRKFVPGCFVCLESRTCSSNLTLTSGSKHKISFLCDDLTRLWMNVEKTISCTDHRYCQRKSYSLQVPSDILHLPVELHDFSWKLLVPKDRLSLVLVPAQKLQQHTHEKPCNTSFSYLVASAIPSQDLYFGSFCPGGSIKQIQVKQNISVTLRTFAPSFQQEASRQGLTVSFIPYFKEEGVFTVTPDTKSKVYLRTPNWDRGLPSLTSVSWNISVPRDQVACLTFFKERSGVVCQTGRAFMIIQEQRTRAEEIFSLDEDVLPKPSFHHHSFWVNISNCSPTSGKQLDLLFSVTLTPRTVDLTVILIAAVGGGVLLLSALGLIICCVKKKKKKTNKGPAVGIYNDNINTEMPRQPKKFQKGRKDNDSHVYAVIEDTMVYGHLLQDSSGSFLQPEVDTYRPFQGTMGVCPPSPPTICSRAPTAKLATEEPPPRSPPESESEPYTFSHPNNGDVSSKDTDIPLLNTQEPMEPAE


Biological target: T1, full-length hCDCP1 with N-terminal …
Assay: flow cytometry on Ba/F3-hCDCP1 cells

Binder | binding result
h14A063VH2/VL1 (antibody, human IgG1, kappa, humanized antibody, human IgG1/kappa constant regions) heavy: not shown light: EIVLTQSPATLSLSPGERATLSCRASESVDSYGNSFMHWYQQKPGQAPRLLIFLASNLESGVPARFSGSGSRTDFTLTISSLEPEDFAVYYCQQNNEDPWTFGGGTKVEIKRTVAAPSVFIFPPSDEQLKSGTASVVCLLNNFYPREAKVQWKVDNALQSGNSQESVTEQDSKDSTYSLSSTLTLSKADYEKHKVYACEVTHQGLSSPVTKSFNRGEC | binds
h14A043VH1/VL1 (antibody, human IgG1, kappa, humanized antibody, human IgG1/kappa constant regions; also called h14A043VH1/VL1-biotin (biotinylated form)) heavy: not shown light: EIVLTQSPATLSLSPGERATLSCSASSSVSYLYWYQQKPGQAPRPWIYLTSNLASGVPARFSGSGSGTDFTLTISSLEPEDFAVYYCQQWSSNPFTFGGGTKVEIKRTVAAPSVFIFPPSDEQLKSGTASVVCLLNNFYPREAKVQWKVDNALQSGNSQESVTEQDSKDSTYSLSSTLTLSKADYEKHKVYACEVTHQGLSSPVTKSFNRGEC | binds
h14A043VH2/VL1 (antibody, human IgG1, kappa, humanized antibody, human IgG1/kappa constant regions; also called h14A043VH2/VL1-biotin (biotinylated form)) heavy: not shown light: EIVLTQSPATLSLSPGERATLSCSASSSVSYLYWYQQKPGQAPRPWIYLTSNLASGVPARFSGSGSGTDFTLTISSLEPEDFAVYYCQQWSSNPFTFGGGTKVEIKRTVAAPSVFIFPPSDEQLKSGTASVVCLLNNFYPREAKVQWKVDNALQSGNSQESVTEQDSKDSTYSLSSTLTLSKADYEKHKVYACEVTHQGLSSPVTKSFNRGEC | binds
h14A043VH2/VL2 (antibody, human IgG1, kappa, V domains shown, humanized antibody, human IgG1/kappa constant regions) VH: QVQLVQSGAEVKKPGSSVKVSCKASGFNIKDYYMNWVRQAPGQGLEWIGWIDPENANTIYDPKFQGRATITADESTSTAYMELSSLRSEDTAVYYCYGSSYRFTYWGQGTLVTVSS VL: EIVLTQSPATLSLSPGERATLSCSASSSVSYLYWYQQKPGQAPRPWIYLTSNLASGVPARFSGSGSGTDYTLTISSLEPEDFAVYYCQQWSSNPFTFGGGTKVEIKR | binds
h14A043VH1/VL3 (antibody, human IgG1, kappa, humanized antibody, human IgG1/kappa constant regions; also called h14A043VH1/VL3-biotin (biotinylated form)) heavy: not shown light: EIVLIQSPATLSLSPGERATLSCSASSSVSYLYWYQQKPGQAPRPWIYLTSNLASGVPARFSGSGSGTDFTLTISSLEPEDFAVYYCQQWSSNPFTFGGGTKVEIKRTVAAPSVFIFPPSDEQLKSGTASVVCLLNNFYPREAKVQWKVDNALQSGNSQESVTEQDSKDSTYSLSSTLTLSKADYEKHKVYACEVTHQGLSSPVTKSFNRGEC | binds
h14A043VH2/VL3 (antibody, human IgG1, kappa, humanized antibody, human IgG1/kappa constant regions) heavy: not shown light: EIVLIQSPATLSLSPGERATLSCSASSSVSYLYWYQQKPGQAPRPWIYLTSNLASGVPARFSGSGSGTDFTLTISSLEPEDFAVYYCQQWSSNPFTFGGGTKVEIKRTVAAPSVFIFPPSDEQLKSGTASVVCLLNNFYPREAKVQWKVDNALQSGNSQESVTEQDSKDSTYSLSSTLTLSKADYEKHKVYACEVTHQGLSSPVTKSFNRGEC | binds
h14A043VH1/VL2 (antibody, human IgG1, kappa, V domains shown, humanized antibody, human IgG1/kappa constant regions; also called h14A043VH1/VL2-biotin (biotinylated form)) VH: QVQLVQSGAEVKKPGSSVKVSCKASGFNIKDYYMNWVRQAPGQGLEWIGWIDPENANTIYDPKFQGRVTITADESTSTAYMELSSLRSEDTAVYYCYGSSYRFTYWGQGTLVTVSS VL: EIVLTQSPATLSLSPGERATLSCSASSSVSYLYWYQQKPGQAPRPWIYLTSNLASGVPARFSGSGSGTDYTLTISSLEPEDFAVYYCQQWSSNPFTFGGGTKVEIKR | binds
h12A041VH1/VL (antibody, human IgG1, kappa, V domains shown, humanized antibody, human IgG1/kappa constant regions; also called h12A041VH1/VL-biotin (biotinylated form)) VH: QVTLRESGPALVKPTQTLTLTCTFSGFSLSTSGMGVSWIRQPPGKALEWLAHIYWDDDKRYNPSLKSRLTISKDTSKNQVVLTMTNMDPVDTATYYCARSGSYYGSSLDSWGQGTTVTVSS VL: DIVMTQSPLSLPVTPGEPASISCRSSQSIVHSSGNTYLEWYLQKPGQSPQLLIYKVSNRFSGVPDRFSGSGSGTDFTLKISRVEAEDVGVYYCFQGSHVPWTFGGGTKVEIKR | binds
h12A041VH2A/VLB (antibody, human IgG1, kappa, V domains shown, humanized antibody, human IgG1/kappa constant regions) VH: QVTLRESGPALVKPTQTLTLTCTFSGFSLSTFGMGVSWIRQPPGKGLEWLAHIYWDDDKRYNPSLKSRLTISKDTSKNQVVLTMTNMDPVDTATYYCARSGSYYGSSLDSWGQGTTVTVSS VL: DIVMTQSPLSLPVTPGEPASISCRSSQNIVHSDGNTYLEWYLQKPGQSPQLLIYKVSNRFSGVPDRFSGSGSGTDFTLKISRVEAEDVGVYYCFQGSHVPWTFGGGTKVEIKR | binds
h12A041VH1A/VLA (antibody, human IgG1, kappa, V domains shown, humanized antibody, human IgG1/kappa constant regions) VH: QVTLRESGPALVKPTQTLTLTCTFSGFSLSTFGMGVSWIRQPPGKALEWLAHIYWDDDKRYNPSLKSRLTISKDTSKNQVVLTMTNMDPVDTATYYCARSGSYYGSSLDSWGQGTTVTVSS VL: DIVMTQSPLSLPVTPGEPASISCRSSQSIVYSSGNTYLEWYLQKPGQSPQLLIYKVSNRFSGVPDRFSGSGSGTDFTLKISRVEAEDVGVYYCFQGSHVPWTFGGGTKVEIKR | binds
h12A041VH1A/VL (antibody, human IgG1, kappa, V domains shown, humanized antibody, human IgG1/kappa constant regions; also called h12A041VH1A/VL-biotin (biotinylated form)) VH: QVTLRESGPALVKPTQTLTLTCTFSGFSLSTFGMGVSWIRQPPGKALEWLAHIYWDDDKRYNPSLKSRLTISKDTSKNQVVLTMTNMDPVDTATYYCARSGSYYGSSLDSWGQGTTVTVSS VL: DIVMTQSPLSLPVTPGEPASISCRSSQSIVHSSGNTYLEWYLQKPGQSPQLLIYKVSNRFSGVPDRFSGSGSGTDFTLKISRVEAEDVGVYYCFQGSHVPWTFGGGTKVEIKR | binds

The next lines start with the values.

binding result | Binder
binds | h12A041VH2/VLB (antibody, human IgG1, kappa, V domains shown, humanized antibody, human IgG1/kappa constant regions) VH: QVTLRESGPALVKPTQTLTLTCTFSGFSLSTSGMGVSWIRQPPGKGLEWLAHIYWDDDKRYNPSLKSRLTISKDTSKNQVVLTMTNMDPVDTATYYCARSGSYYGSSLDSWGQGTTVTVSS VL: DIVMTQSPLSLPVTPGEPASISCRSSQNIVHSDGNTYLEWYLQKPGQSPQLLIYKVSNRFSGVPDRFSGSGSGTDFTLKISRVEAEDVGVYYCFQGSHVPWTFGGGTKVEIKR
binds | h12A041VH2A/VLA (antibody, human IgG1, kappa, V domains shown, humanized antibody, human IgG1/kappa constant regions) VH: QVTLRESGPALVKPTQTLTLTCTFSGFSLSTFGMGVSWIRQPPGKGLEWLAHIYWDDDKRYNPSLKSRLTISKDTSKNQVVLTMTNMDPVDTATYYCARSGSYYGSSLDSWGQGTTVTVSS VL: DIVMTQSPLSLPVTPGEPASISCRSSQSIVYSSGNTYLEWYLQKPGQSPQLLIYKVSNRFSGVPDRFSGSGSGTDFTLKISRVEAEDVGVYYCFQGSHVPWTFGGGTKVEIKR
binds | h12A041VH2/VLA (antibody, human IgG1, kappa, V domains shown, humanized antibody, human IgG1/kappa constant regions) VH: QVTLRESGPALVKPTQTLTLTCTFSGFSLSTSGMGVSWIRQPPGKGLEWLAHIYWDDDKRYNPSLKSRLTISKDTSKNQVVLTMTNMDPVDTATYYCARSGSYYGSSLDSWGQGTTVTVSS VL: DIVMTQSPLSLPVTPGEPASISCRSSQSIVYSSGNTYLEWYLQKPGQSPQLLIYKVSNRFSGVPDRFSGSGSGTDFTLKISRVEAEDVGVYYCFQGSHVPWTFGGGTKVEIKR
binds | h12A041VH1A/VLB (antibody, human IgG1, kappa, V domains shown, humanized antibody, human IgG1/kappa constant regions) VH: QVTLRESGPALVKPTQTLTLTCTFSGFSLSTFGMGVSWIRQPPGKALEWLAHIYWDDDKRYNPSLKSRLTISKDTSKNQVVLTMTNMDPVDTATYYCARSGSYYGSSLDSWGQGTTVTVSS VL: DIVMTQSPLSLPVTPGEPASISCRSSQNIVHSDGNTYLEWYLQKPGQSPQLLIYKVSNRFSGVPDRFSGSGSGTDFTLKISRVEAEDVGVYYCFQGSHVPWTFGGGTKVEIKR
binds | h12A041VH2/VL (antibody, human IgG1, kappa, V domains shown, humanized antibody, human IgG1/kappa constant regions) VH: QVTLRESGPALVKPTQTLTLTCTFSGFSLSTSGMGVSWIRQPPGKGLEWLAHIYWDDDKRYNPSLKSRLTISKDTSKNQVVLTMTNMDPVDTATYYCARSGSYYGSSLDSWGQGTTVTVSS VL: DIVMTQSPLSLPVTPGEPASISCRSSQSIVHSSGNTYLEWYLQKPGQSPQLLIYKVSNRFSGVPDRFSGSGSGTDFTLKISRVEAEDVGVYYCFQGSHVPWTFGGGTKVEIKR
binds | h12A041VH1/VLA (antibody, human IgG1, kappa, V domains shown, humanized antibody, human IgG1/kappa constant regions; also called h12A041VH1/VLA-biotin (biotinylated form); h12A041VH1NLA-biotin) VH: QVTLRESGPALVKPTQTLTLTCTFSGFSLSTSGMGVSWIRQPPGKALEWLAHIYWDDDKRYNPSLKSRLTISKDTSKNQVVLTMTNMDPVDTATYYCARSGSYYGSSLDSWGQGTTVTVSS VL: DIVMTQSPLSLPVTPGEPASISCRSSQSIVYSSGNTYLEWYLQKPGQSPQLLIYKVSNRFSGVPDRFSGSGSGTDFTLKISRVEAEDVGVYYCFQGSHVPWTFGGGTKVEIKR
binds | h12A041VH2A/VL (antibody, human IgG1, kappa, V domains shown, humanized antibody, human IgG1/kappa constant regions) VH: QVTLRESGPALVKPTQTLTLTCTFSGFSLSTFGMGVSWIRQPPGKGLEWLAHIYWDDDKRYNPSLKSRLTISKDTSKNQVVLTMTNMDPVDTATYYCARSGSYYGSSLDSWGQGTTVTVSS VL: DIVMTQSPLSLPVTPGEPASISCRSSQSIVHSSGNTYLEWYLQKPGQSPQLLIYKVSNRFSGVPDRFSGSGSGTDFTLKISRVEAEDVGVYYCFQGSHVPWTFGGGTKVEIKR
binds | h12A041VH1/VLB (antibody, human IgG1, kappa, V domains shown, humanized antibody, human IgG1/kappa constant regions; also called h12A041VH1/VLB-biotin (biotinylated form)) VH: QVTLRESGPALVKPTQTLTLTCTFSGFSLSTSGMGVSWIRQPPGKALEWLAHIYWDDDKRYNPSLKSRLTISKDTSKNQVVLTMTNMDPVDTATYYCARSGSYYGSSLDSWGQGTTVTVSS VL: DIVMTQSPLSLPVTPGEPASISCRSSQNIVHSDGNTYLEWYLQKPGQSPQLLIYKVSNRFSGVPDRFSGSGSGTDFTLKISRVEAEDVGVYYCFQGSHVPWTFGGGTKVEIKR

— US20230050380A1 (CHIOME BIOSCIENCE, published 2023)
